Patent US20090004675A1, “Method of Identifying Compounds for Bacterial Growth Modulation” (priority 2004, published 2009)

Assays:
[1] = target: Escherichia coli β clamp (beta subunit of DNA polymerase III holoenzyme) (UniProt P0A988); assay: fluorescence anisotropy; labeled peptide
[2] = target: Escherichia coli β clamp (beta subunit of DNA polymerase III holoenzyme) (UniProt P0A988); assay: fluorescence (fluorophore-labeled β titrated with peptide); ±0.9; labeled β
[3] = target: Escherichia coli β clamp (beta subunit of DNA polymerase III holoenzyme) (UniProt P0A988); assay: fluorescence (fluorophore-labeled β titrated with peptide); ±0.6; labeled β

Escherichia coli β clamp (beta subunit of DNA polymerase III holoenzyme), sequence (P0A988 whole entry): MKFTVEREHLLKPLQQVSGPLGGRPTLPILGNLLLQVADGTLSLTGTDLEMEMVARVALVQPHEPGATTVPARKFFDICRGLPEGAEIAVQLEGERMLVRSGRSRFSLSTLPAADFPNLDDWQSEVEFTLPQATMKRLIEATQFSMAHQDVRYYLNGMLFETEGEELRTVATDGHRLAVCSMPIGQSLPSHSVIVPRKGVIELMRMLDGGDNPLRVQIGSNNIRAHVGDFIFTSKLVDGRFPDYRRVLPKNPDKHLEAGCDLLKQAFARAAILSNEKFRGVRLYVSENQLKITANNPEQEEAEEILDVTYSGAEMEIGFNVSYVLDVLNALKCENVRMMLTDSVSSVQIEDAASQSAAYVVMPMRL
Peptide corresponding to C-terminal residues of Streptococcus pyogenes Pol C, sequence (A2RGI3 1444-1465): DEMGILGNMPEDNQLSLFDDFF
C-terminal peptide corresponding to Staphylococcus aureus Pol C, sequence (A6QGG4 1419-1438): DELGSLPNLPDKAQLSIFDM

Substance	Kd [1] [µM]	Kd [2] [µM]	Kd [3] [µM]
C-terminal peptide corresponding to Staphylococcus aureus Pol C	5.9	7.2	
Peptide corresponding to C-terminal residues of Streptococcus pyogenes Pol C	1.5		2.5
